The values below come from article PMC8213764.

Several values for one entry are separate records, joined by “and”; a condition that tells them apart may be missing. Equal entries are not always repeated.

By stoichiometry N is commonly meant a count of units in the complex or per binding partner.

In this assay the target is Human intelectin-1 (ITLN1) of human ileal lysates, genotype at residue 109 not told for the sentence (human (endogenous in ileum)) (UniProt Q8WWA0). Put plainly: non-reducing SDS-PAGE immunoblot; human ileal lysates (150 mM NaCl, 1% Triton X-100, 0.5% sodium deoxycholate, 0.1% SDS, 50 mM Tris pH 8.0), heated at 95 °C for 30 min without 2-mercaptoethanol, gradient SDS-PAGE (4-20%), immunoblot; oligomers stable under denaturing conditions. A general note: A western blot detects proteins with antibodies after separation by electrophoresis.

Consider “Human intelectin-1 (ITLN1) of human ileal lysates, genotype at residue 109 not told for the sentence (from UniProt Q8WWA0 19-298) (natural protein)”, for which the stoichiometry N was 3 and 6.
